Measured values from US20260167710A1 (GlaxoSmithKline, published 2026).

Key:
human IL-33 [1] = target: T1, human IL-33 (human, Biotinylated in Example 2; the site is not stated.); assay: cell-based or functional assay
T1 chain: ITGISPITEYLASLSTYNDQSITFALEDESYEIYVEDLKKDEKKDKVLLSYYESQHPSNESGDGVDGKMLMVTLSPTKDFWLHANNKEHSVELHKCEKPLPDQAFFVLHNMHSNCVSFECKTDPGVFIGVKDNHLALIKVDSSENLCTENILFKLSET

IL-33 99-270 = target: T2, IL-33 99-270 (UniProt O95760 99-270); assay: cell-based or functional assay
T2 sequence (looked up): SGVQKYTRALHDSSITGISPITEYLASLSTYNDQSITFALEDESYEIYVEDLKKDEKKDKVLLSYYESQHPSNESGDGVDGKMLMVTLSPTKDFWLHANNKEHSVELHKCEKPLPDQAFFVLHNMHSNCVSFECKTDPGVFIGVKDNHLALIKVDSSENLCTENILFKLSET

[2] = target: T3, Mature IL-33 (IL-33 113-270) (UniProt O95760 113-270); assay: cell-based or functional assay
T3 sequence (looked up): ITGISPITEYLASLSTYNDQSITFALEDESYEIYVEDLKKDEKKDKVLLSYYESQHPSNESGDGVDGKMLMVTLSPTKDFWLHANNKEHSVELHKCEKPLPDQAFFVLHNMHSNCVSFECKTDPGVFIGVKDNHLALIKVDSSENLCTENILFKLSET

spIL-33 = assay: cell-based or functional assay
IL-33 95-270 = target: T4, IL-33 95-270 (UniProt O95760 95-270); assay: cell-based or functional assay
T4 sequence (looked up): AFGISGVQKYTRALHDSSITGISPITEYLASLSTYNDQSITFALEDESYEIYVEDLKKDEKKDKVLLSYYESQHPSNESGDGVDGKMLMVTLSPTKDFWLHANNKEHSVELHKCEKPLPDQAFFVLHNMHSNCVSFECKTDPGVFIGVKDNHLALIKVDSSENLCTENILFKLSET

[3] = target: T5, human complement component C1q (human, UniProt P02745 23-245; P02746 28-253; P02747 29-245); assay: SPR (ProteOn XPR36), antibody immobilised by amine coupling, C1q as analyte, equilibrium fit, 25 C
T5 construct: also called human recombinant soluble complement C1q; Sigma #C1740-5 mg
T5 sequence (P02745 23-245 limits assumed, chain 1 of 3): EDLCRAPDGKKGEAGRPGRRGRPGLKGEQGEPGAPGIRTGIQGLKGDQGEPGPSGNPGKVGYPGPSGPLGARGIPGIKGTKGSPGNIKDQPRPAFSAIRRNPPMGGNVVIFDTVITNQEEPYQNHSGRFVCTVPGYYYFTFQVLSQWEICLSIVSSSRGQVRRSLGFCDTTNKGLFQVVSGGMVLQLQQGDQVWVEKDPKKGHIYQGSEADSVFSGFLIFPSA
T5 sequence (P02746 28-253 limits assumed, chain 2 of 3): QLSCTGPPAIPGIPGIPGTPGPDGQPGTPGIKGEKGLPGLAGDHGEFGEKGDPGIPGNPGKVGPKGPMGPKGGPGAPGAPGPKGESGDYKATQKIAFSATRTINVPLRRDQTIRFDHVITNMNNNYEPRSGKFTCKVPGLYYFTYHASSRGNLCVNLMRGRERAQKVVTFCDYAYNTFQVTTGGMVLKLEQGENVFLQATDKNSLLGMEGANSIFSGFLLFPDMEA
T5 sequence (P02747 29-245 limits assumed, chain 3 of 3): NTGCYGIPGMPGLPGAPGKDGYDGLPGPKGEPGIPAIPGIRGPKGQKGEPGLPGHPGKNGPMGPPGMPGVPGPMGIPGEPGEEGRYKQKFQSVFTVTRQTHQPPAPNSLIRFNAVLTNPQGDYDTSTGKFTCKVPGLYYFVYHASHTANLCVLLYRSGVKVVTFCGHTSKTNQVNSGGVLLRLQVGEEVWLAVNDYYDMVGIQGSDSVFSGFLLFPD

human IL-33 [4] = target: T1, human IL-33; assay: MSD-SET solution equilibrium titration, 37 C
cynomolgus IL-33 = target: T6, cynomolgus IL-33 (cynomolgus monkey, UniProt A0A2K5W3I1 112-269); assay: MSD-SET solution equilibrium titration, 37 C
T6 construct: also called cyno IL-33; cynomolgus monkey IL-33
T6 sequence: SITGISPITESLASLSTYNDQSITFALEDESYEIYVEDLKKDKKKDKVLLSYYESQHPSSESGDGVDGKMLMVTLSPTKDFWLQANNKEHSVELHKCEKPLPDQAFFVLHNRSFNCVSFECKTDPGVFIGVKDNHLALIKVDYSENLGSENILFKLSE

[5] = target: T7, human recombinant neonatal receptor (FcRn) (human, UniProt P55899 24-297; P61769 21-119); assay: SPR (ProteOn XPR36), antibody captured by protein L, FcRn as analyte, equilibrium fit, pH 6.0, 25 C
T7 construct: also called human FcRn; human recombinant soluble FcRn
T7 sequence (P55899 24-297 limits assumed, chain 1 of 2): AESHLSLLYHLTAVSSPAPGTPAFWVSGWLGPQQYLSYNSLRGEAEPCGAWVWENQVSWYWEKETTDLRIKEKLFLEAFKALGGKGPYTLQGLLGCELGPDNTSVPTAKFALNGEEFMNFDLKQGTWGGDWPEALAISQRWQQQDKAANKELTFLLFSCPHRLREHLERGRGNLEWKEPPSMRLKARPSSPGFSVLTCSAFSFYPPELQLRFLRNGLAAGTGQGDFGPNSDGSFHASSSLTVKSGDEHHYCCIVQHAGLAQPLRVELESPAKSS
T7 sequence (P61769 21-119 limits assumed, chain 2 of 2): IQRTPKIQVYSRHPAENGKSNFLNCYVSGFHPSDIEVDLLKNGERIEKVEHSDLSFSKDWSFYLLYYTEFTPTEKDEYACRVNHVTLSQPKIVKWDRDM

[6] = target: T8, cynomolgus recombinant neonatal receptor (FcRn) (cynomolgus monkey, UniProt Q8SPV9 24-297; Q8SPW0 21-119); assay: as above
T8 construct: extracellular domain; beta-2-microglobulin is not mentioned; also called cyno FcRn; cynomolgus monkey FcRn
T8 sequence (Q8SPV9 24-297 limits assumed, chain 1 of 2): as the sequence (P55899 24-297 limits assumed, chain 1 of 2) above, with N39D, E44Q, G99S, S189G, S190N, L217M, S269T counted along it
T8 sequence (Q8SPW0 21-119 limits assumed, chain 2 of 2): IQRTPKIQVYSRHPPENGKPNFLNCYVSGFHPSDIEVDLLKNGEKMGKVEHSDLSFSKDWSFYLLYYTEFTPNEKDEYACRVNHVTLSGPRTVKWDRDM

human IL-33 [7] = target: T1, human IL-33; assay: cell-based or functional assay
hFcgRIIIa (F158) = target: T9, hFcgRIIIa (F158) (human, UniProt P08637 17-208); assay: SPR (ProteOn XPR36), anti-poly-histidine IgG surface, antibody as analyte, equilibrium fit, 25 C
T9 construct: extracellular domain
T9 sequence (P08637 17-208): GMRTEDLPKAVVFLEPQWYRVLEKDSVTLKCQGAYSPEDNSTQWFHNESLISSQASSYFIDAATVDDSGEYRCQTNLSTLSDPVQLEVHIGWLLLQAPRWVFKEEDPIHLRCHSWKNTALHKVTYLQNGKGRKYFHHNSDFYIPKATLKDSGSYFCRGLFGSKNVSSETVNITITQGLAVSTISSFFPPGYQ

hFcgRIIa (H131) = target: T10, hFcgRIIa (H131) (human, UniProt P12318 34-217); assay: as above
T10 construct: extracellular domain; His at position 131 (mature numbering as commonly used)
T10 sequence (looked up): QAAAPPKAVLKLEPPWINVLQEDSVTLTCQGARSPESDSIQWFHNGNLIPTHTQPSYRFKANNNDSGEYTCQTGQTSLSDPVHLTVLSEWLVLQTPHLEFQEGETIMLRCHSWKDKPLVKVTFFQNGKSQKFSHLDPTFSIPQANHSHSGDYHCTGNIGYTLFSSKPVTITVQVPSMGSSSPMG

hFcgRIIIa (V158) = target: T11, hFcgRIIIa (V158) (human, UniProt P08637 17-208); assay: as above
T11 construct: extracellular domain
T11 sequence (P08637 17-208 F176V): as the sequence (P08637 17-208) above, with F160V counted along it

hFcgRIIb = target: T12, hFcgRIIb (human, UniProt P31994 43-217); assay: as above
T12 construct: extracellular domain
T12 sequence (looked up): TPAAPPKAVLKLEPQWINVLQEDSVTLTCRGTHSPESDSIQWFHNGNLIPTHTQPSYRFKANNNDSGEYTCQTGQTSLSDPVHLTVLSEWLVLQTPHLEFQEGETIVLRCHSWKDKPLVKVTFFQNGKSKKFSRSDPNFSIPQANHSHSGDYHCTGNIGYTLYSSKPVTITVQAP

B1: 22A06-458 (antibody, human IgG1, kappa)
heavy: QVQLVQSGAEVKKPGASVKVSCKASGYTFISYGMHWVRQAPGQGLEWMGEINPHGGSTSYAQKFKGRVTMTRDTSTSTVYMELSSLRSEDTAVYYCARPSAAYSHYLGIDLWGRGTLVTVSSASTKGPSVFPLAPSSKSTSGGTAALGCLVKDYFPEPVTVSWNSGALTSGVHTFPAVLQSSGLYSLSSVVTVPSSSLGTQTYICNVNHKPSNTKVDKKVEPKSCDKTHTCPPCPAPELLGGPSVFLFPPKPKDTLYITREPEVTCVVVDVSHEDPEVKFNWYVDGVEVHNAKTKPREEQYNSTYRVVSVLTVLHQDWLNGKEYKCKVSNKALPAPIEKTISKAKGQPREPQVYTLPPSRDELTKNQVSLTCLVKGFYPSDIAVEWESNGQPENNYKTTPPVLDSDGSFFLYSKLTVDKSRWQQGNVFSCSVMHEALHNHYTQKSLSLSPGK
light: DIQMTQSPSSVSASVGDRVTITCRASQGISSWLAWYQQKPGKAPKLLIYAASRLQSGVPSRFSGSGSGTDFTLTISSLQPEDFATYYCQQANVFPLTFGGGTKVEIKRTVAAPSVFIFPPSDEQLKSGTASVVCLLNNFYPREAKVQWKVDNALQSGNSQESVTEQDSKDSTYSLSSTLTLSKADYEKHKVYACEVTHQGLSSPVTKSFNRGEC
IC50, inhibition of 10 ng/mL human IL-33 induced IL-6 production, mouse bone marrow-derived mast cells (human IL-33 [1]): ~0.566 nM | IC50, inhibition of 10 ng/mL human IL-33 induced IL-13 production, mouse bone marrow-derived mast cells (human IL-33 [1]): ~0.567 nM | IC50, inhibition of 10 ng/mL human IL-33 induced IL-18 production, mouse bone marrow-derived mast cells (human IL-33 [1]): ~0.631 nM | IC50, inhibition of 10 ng/mL human IL-33 induced TNF-α production, mouse bone marrow-derived mast cells (human IL-33 [1]): ~0.581 nM | pIC50, inhibition of 10 ng/mL human IL-33 induced IL-6 production, mouse bone marrow-derived mast cells (human IL-33 [1]): ~9.25 | pIC50, inhibition of 10 ng/mL human IL-33 induced IL-13 production, mouse bone marrow-derived mast cells (human IL-33 [1]): ~9.25 | pIC50, inhibition of 10 ng/mL human IL-33 induced IL-18 production, mouse bone marrow-derived mast cells (human IL-33 [1]): ~9.2 | pIC50, inhibition of 10 ng/mL human IL-33 induced TNF-α production, mouse bone marrow-derived mast cells (human IL-33 [1]): ~9.24 | IC50, inhibition of 25 pM IL-33 isoform in HEK-Blue reporter assay (IL-33 99-270): 436 pM | IC50, inhibition of 25 pM IL-33 isoform in HEK-Blue reporter assay [2]: 18.2 pM | IC50, inhibition of 25 pM IL-33 isoform in HEK-Blue reporter assay (spIL-33): 90.3 pM | IC50, inhibition of 25 pM IL-33 isoform in HEK-Blue reporter assay (IL-33 95-270): 162 pM | Kd [3]: 213 nM | Kd (human IL-33 [4]): 0.0135 nM | Kd (cynomolgus IL-33): 0.0565 nM | Kd [5]: 25 nM | Kd [6]: 24.7 nM | IC50, inhibition of IL-33 (15 pM) induced superoxide generation from eosinophils, pre-complexed, Mean (human IL-33 [7]): 19.6 pM | IC50, inhibition of IL-33 (15 pM) induced superoxide generation from eosinophils, pre-complexed, N = 1 (human IL-33 [7]): 21.9 pM | IC50, inhibition of IL-33 (15 pM) induced superoxide generation from eosinophils, pre-complexed, N = 2 (human IL-33 [7]): 23.5 pM | IC50, inhibition of IL-33 (15 pM) induced superoxide generation from eosinophils, pre-complexed, N = 3 (human IL-33 [7]): 16.5 pM | IC50, inhibition of IL-33 (15 pM) induced superoxide generation from eosinophils, pre-complexed, N = 4 (human IL-33 [7]): 25.6 pM | IC50, inhibition of IL-33 (15 pM) induced superoxide generation from eosinophils, pre-complexed, N = 5 (human IL-33 [7]): 14.8 pM | IC50, inhibition of IL-33 (15 pM) induced superoxide generation from eosinophils, pre-complexed, N = 6 (human IL-33 [7]): 10.5 pM | IC50, inhibition of IL-33 (15 pM) induced superoxide generation from eosinophils, pre-complexed, N = 7 (human IL-33 [7]): 24.8 pM | pIC50, inhibition of IL-33 (15 pM) induced superoxide generation from eosinophils, pre-complexed, Mean (human IL-33 [7]): 10.7 | pIC50, inhibition of IL-33 (15 pM) induced superoxide generation from eosinophils, pre-complexed, N = 1 (human IL-33 [7]): 10.7 | pIC50, inhibition of IL-33 (15 pM) induced superoxide generation from eosinophils, pre-complexed, N = 2 (human IL-33 [7]): 10.6 | pIC50, inhibition of IL-33 (15 pM) induced superoxide generation from eosinophils, pre-complexed, N = 3 (human IL-33 [7]): 10.8 | pIC50, inhibition of IL-33 (15 pM) induced superoxide generation from eosinophils, pre-complexed, N = 4 (human IL-33 [7]): 10.6 | pIC50, inhibition of IL-33 (15 pM) induced superoxide generation from eosinophils, pre-complexed, N = 5 (human IL-33 [7]): 10.8 | pIC50, inhibition of IL-33 (15 pM) induced superoxide generation from eosinophils, pre-complexed, N = 6 (human IL-33 [7]): 11 | pIC50, inhibition of IL-33 (15 pM) induced superoxide generation from eosinophils, pre-complexed, N = 7 (human IL-33 [7]): 10.6 | Kd (hFcgRIIIa (F158)): 987 nM | Kd (hFcgRIIa (H131)): 574 nM | Kd (hFcgRIIIa (V158)): 215 nM | Kd (hFcgRIIb): 5220 nM
